Assay results from the Human Domainome abundance scans (Beltran et al. 2025).

B1: Zinc finger MYM-type protein 3, residues 405 to 444; numbered along this chain, Q14202 (parent)
chain: DATRCSICQKTGEVLHEVSNGSVVHRLCSDSCFSKFRANK

Variants of: B1
Test: abundance fitness (aPCA) (normalised: wild type 0, dead -1); higher = more abundant; growth selection in yeast, the domain comes from the species named
Details: Homo sapiens

Abundance fitness, by site and new letter:
V14: W -0.561, K -0.43, P -0.057, T -0.033, S -0.185, L -0.344, E -0.453, M -0.029, F -0.068, D -0.228, Q -0.142, R -0.374, G -0.08, H -0.667, A -0.173, N -0.087, I -0.029, C -0.453, Y -0.461
V24: F -0.307, E -0.03, G -0.255, C -0.206, K 0.032, I -0.064, H -0.034
G21: P -0.392, D 0.016, M -0.243, H -0.235, V -0.611, W -0.701, R -0.354, Y -0.389, C -0.335, Q 0.043, S -0.193, L -0.298, F -0.366, E 0.008, N -0.646, K -0.214
R4: N 0.122, S -0.35, G -0.219, H -0.039, V -0.193, I 0.211, E -0.211, W -0.563, P -0.335, T -0.125, F 0.147, M 0.047, L -0.32, D 0, Y 0.079
E13: H -0.204, C -0.855, D -0.2, I -0.448, S -0.201, L -0.391, G -0.271, R -0.19, T -0.111, K -0.049, M -0.074, P -0.236, F 0.036, Q -0.052, V -0.298, N -0.216, W -0.696
K10: L -0.273, M -0.232, F -0.595, R -0.098, T -0.277, P -0.877, Q -0.208, I -0.417, C -0.367, S -0.231, D -0.49, A -0.293, V -0.649, E -0.088, Y -0.436, W -0.479, G -0.09, N -0.559
G12: I -0.21, N -0.511, H -0.215, E -0.083, V -0.137, L -0.245, P -0.639, F -0.414, Q -0.228, S -0.115, R -0.165, T -0.092, D -0.311, W -0.639, M -0.089
C8: R -0.787, P -0.912, K -0.999, G -0.86, N -0.779, Q -0.993, M -1.21, L -0.843, E -0.85, T -0.61, W -1.19, V -1.11, I -0.978, S -0.927, D -0.895, Y -0.774, F -0.754
S19: T -0.009, I -0.11, K 0.176, R -0.078, A -0.215, G -0.1, M -0.12, H -0.268, F -0.101, E 0.066, V -0.135, N 0.052, P 0.023, L -0.233, Y -0.383, Q 0.059, D -0.078
T11: P -0.499, R -0.287, N -0.14, S -0.315, I -0.203, L -0.116, G -0.127, F -0.221, A -0.27, Q -0.157, C -0.519, V -0.452, D -0.104, K -0.354, H 0.088, W -0.627
Q9: R -0.288, P -0.606, V -0.803, Y -0.014, L -0.22, M -0.123, F -0.087, C -0.215, D -0.293, W -0.234, K -0.05, A -0.585, E 0.023, T -0.195, H -0.194, S -0.129, G -0.16
L15: Q 0.102, H 0.017, V -0.034, E -0.227, N -0.038, G -0.153, T -0.141, K 0.079, F -0.092, S 0.047, R 0.07, Y -0.142, I 0.001, P -0.033
C5: L -0.835, P -1.02, Q -1.05, T -0.836, F -0.776, D -0.79, A -1.29, Y -0.97, G -0.914, S -0.922, V -0.999, W -1.06
V18: P -0.258, R -0.334, G -0.42, Q -0.243, H -0.209, I -0.067, C -0.201, M -0.266, A -0.183, F -0.095, N -0.358, W -0.228, E -0.15, L -0.157, K -0.267
I7: S -0.269, R -0.25, M -0.194, H -0.267, K -0.508, D -0.376, W -0.218, N 0.209, Y 0.079, E -0.332, G -0.12, F -0.13, V -0.037, T -0.218, C -0.463, P -0.804, L -0.146, A -0.325
S6: I -0.021, L -0.312, A 0.104, F -0.012, Q -0.285, M -0.365, W -0.182, R -0.228, P -0.009, N -0.218, Y 0.052, D -0.302, E -0.103, G -0.252, V -0.469
V23: R -0.013, W -0.757, E 0.103, T 0.126, S 0.007, C -0.937, I -0.087, F -0.01, N 0.14, G 0.018, H 0.092, A -0.085, P -0.374, K 0.114, M 0.13, Y -0.166, L -0.317, D 0.079, Q 0.181
S22: Y -0.303, Q -0.001, M 0.021, D -0.432, P -0.039, H -0.055, A -0.109, L -0.208, N 0.029, T 0.018, C -0.56, E 0.006, R -0.136, W -0.419, V -0.571, I -0.153
H16: Q -0.053, N -0.252, I -0.701, G -0.306, F -0.208, C -1.09, M -0.551, V -0.492, P -0.605, L -0.645, D -0.379, E -0.033, K -0.158, Y -0.466, T -0.352, R -0.121, S -0.319
E17: Y -1.02, K -0.073, W -0.959, H -0.285, N -0.291, T -0.089, I -0.458, D -0.251, M -0.395, L -0.764, S -0.192, F -0.606, R -0.44, A -0.759, P -0.697, V -0.487, C -0.358, G -0.594
N20: I 0.047, P -0.559, R -0.135, E 0.055, A -0.068, W -0.415, C -0.517, F -0.431, S -0.069, K -0.138, H -0.033, M -0.001, G -0.21, V -0.296, D 0.153, Q -0.004
